This experiment concerns the target T1, 35S-methionine-luciferase (in vitro translated from the Promega luciferase control plasmid) (UniProt P08659 1-550 = luciferase, 35S-methionine label).
T1 construct: Control protein in the pull-down; also called control protein luciferase
Kind of experiment: GST pull-down of 35S-labelled protein on glutathione-Sepharose 4B beads, SDS/PAGE and autoradiography. The protocol: The CaM kinase II domain of mCASK-C cDNA was amplified by PCR and cloned in frame into SmaI of pGEX-2T and transformed into E. coli BL21 cells. […] For pull-down assays, radiolabeled Acheron and luciferase was produced from pET-25b(+)-Acheron and luciferase controlled plasmid (Promega) by using in vitro TNT Quick Coupled Transcription/Translation System (Promega) with ³⁵S-methionine as the sole source of methionine, following the manufacture's instructions. 5 μl of ³⁵S-methionine-Acheron and ³⁵S-methionine-luciferase were incubated with equal amount of GST or GST-mCASK-C (CaM kinase II domain) bound to glutathione-Sepharose 4B beads, respectively, under constant rocking for 45 minutes in 2 ml of NETN binding buffer. ³⁵S-methionine-luciferase and GST were used as the controls in the binding assays. The Sepharose beads were pelleted and washed extensively with the binding buffer and were analyzed by SDS/PAGE and autoradiography.
To further confirm the physical interaction between Acheron and mCASK-C, an in vitro protein binding assay was performed. […] The beads were pelleted and washed extensively and the bound protein complex was resolved by SDS/PAGE and detected by autoradiography.

T1 sequence (P08659 whole entry): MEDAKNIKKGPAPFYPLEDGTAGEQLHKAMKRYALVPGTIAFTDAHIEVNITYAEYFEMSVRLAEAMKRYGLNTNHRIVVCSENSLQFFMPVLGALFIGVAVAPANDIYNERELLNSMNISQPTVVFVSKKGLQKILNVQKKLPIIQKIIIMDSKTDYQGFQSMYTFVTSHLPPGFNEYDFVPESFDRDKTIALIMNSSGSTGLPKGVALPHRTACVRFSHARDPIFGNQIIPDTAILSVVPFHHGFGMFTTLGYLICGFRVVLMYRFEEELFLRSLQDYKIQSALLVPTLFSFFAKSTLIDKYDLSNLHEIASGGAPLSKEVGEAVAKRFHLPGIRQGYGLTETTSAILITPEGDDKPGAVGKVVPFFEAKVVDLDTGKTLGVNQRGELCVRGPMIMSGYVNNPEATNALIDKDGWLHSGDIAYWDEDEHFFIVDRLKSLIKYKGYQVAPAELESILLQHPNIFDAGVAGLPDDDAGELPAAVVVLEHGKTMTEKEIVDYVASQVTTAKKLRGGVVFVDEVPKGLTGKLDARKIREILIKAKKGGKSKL

B1: GST-mCASK-C (CaM kinase II domain from amino acid 1 to 339) (other)
chain: MADDDVLFEDVYELCEVIGKGPFSVVRRCINRETGQQFAVKIVDVAKFTSSPGLSTEDLKREASICHMLKHPHIVELLETYSSDGMLYMVFEFMDGADLCFEIVKRADAGFVYSEAVASHYMRQILEALRYCHDNNIIHRDVKPHCVLLASKENSAPVKLGGFGVAIQLGESGLVAGGRVGTPHFMAPEVVKREPYGKPVDVWGCGVILFILLSGCLPFYGTKERLFEGIIKGKYKMNPRQWSHISESAKDLVRRMLMLDPAERITVYEALNHPWLKERDRYAYKIHLPETVEQLRKFNARRKLKGAVLAAVSSHKFNSFYGDPPEELPDFSEDPTSSG
notes: Expressed in E. coli BL21 and immobilised on glutathione-Sepharose 4B beads; not shown: glutathione S-transferase from vector pGEX-2T
In the case of B1, the binding result is “no binding”.
